# Source: article doi:10.1101/2023.10.27.564484, “Insights into Molecular Diversity within the FET Family: Unraveling Phase Separation of the N-Terminal Low Complexity Domain from RNA-Binding Protein EWS” (bioRxiv, 2023)
# B1: EWS low-complexity domain (N-terminal 264 residues of RNA-binding protein EWS) [not stated] / itself (parent)
# chain: GAMASTDYSTYSQAAAQQGYSAYTAQPTQGYAQTTQAYGQQSYGTYGQPTDVSYTQAQTTATYGQTAYATSYGQPPTGYTTPTAPQAYSQPVQGYGTGAYDTTTATVTTTQASYAAQSAYGTQPAYPAYGQQPAATAPTRPQDGNKPTETSQPQSSTGGYNQPSLGYGQSNYSYPQVPGSYPMQPVTAPPSYPPTSYSSTQPTSYDQSSYSQQNTYGQPSSYGQQSSYGQQSSYGQQPPTSYPPQTGSYSQAPSQYSQQSSSYGQQ
# Variants of: B1
# Test: pelleting assay (phase separation)
# Conditions: with itself; 50 µM protein, 150 mM NaCl, 20 mM Tris pH 7.4; read off a plot
row,screen value,Variant
1,0.81,chain 1 Y172S Y174S
2,0.5,chain 1 Y210S
3,0.75,chain 1 Y174S

# Further lines, the variant ahead of its results:
row,Variant,screen value
1,chain 1 Y46S,0.64
2,chain 1 N171S,0.6
